US10215752B2, “Nanotube array for optical detection of protein-protein interactions” (MASSACHUSETTS INSTITUTE OF TECHNOLOGY, priority 2010, dated 2019)
Where two headings read alike, the source gives them in different places.

Tests used:
CDK4 = CDK4 (Homo sapiens, UniProt P11802); assay: Protein-protein interaction on SWNT/CHI array, Förster distance calculation; conditions: distance change after analyte protein CDK4, Förster equation
Experimental: Reaction mixtures for cell-free protein expression were added to each array wells. The fluorescent intensities of each SWNT/CHI well were taken to track the intensity changes. To initiate protein synthesis, 1 μl PCR-amplified DNAs were added to each well a humidified chamber at 37° C. for 2 hours. The arrays were washed three times for 10 min each with PBS buffer (pH 7.4, 100 mM) at RT and then PL spectra were taken. To analyze protein-protein interaction on SWNT/XHI array, anti-Histag antibody or cell-free expressed protein mixtures were added to each well and then PL spectra were taken to compare the intensity change.
Near-infrared photoluminescence spectra were acquired using 785 nm excitation and an Acton SP-150 spectrograph coupled to a Princeton instruments OMA V InGaAs detector or with Kaiser Holospec f/1.8 Imaging Spectrograph (Kaiser Optical).

GafD lectin [1] = target: T1, GafD lectin (Escherichia coli, UniProt Q47341); conditions: probe 1 mg/ml with GafD 3 mg/ml in solution
T1 sequence (Q47341 23-343): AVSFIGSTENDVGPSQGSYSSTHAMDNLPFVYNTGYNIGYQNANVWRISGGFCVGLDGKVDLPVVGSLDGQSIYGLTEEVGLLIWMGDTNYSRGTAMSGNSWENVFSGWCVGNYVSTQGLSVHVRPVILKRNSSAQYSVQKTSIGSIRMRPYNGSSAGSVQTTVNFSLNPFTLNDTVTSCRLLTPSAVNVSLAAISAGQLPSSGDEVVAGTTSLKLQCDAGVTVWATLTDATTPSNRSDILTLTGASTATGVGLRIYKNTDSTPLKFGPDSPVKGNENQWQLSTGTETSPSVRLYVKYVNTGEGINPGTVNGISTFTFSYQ
Experimental: The interaction between lection and glycan was analyzed by 15% native PAGE according to the method of Schagger and von Jagow with minor modifications. […] Briefly, blectrophoresis was performed using Mini Protean Electrophoresis system (Bio-Rad, USA™) for molecular interaction under nondenaturing conditions. Nonreduced protein/glycan samples in the sample buffer (20% glycerol, 200 mM Tris-HCl, pH 6.8, 0.05% bromophenol blue) were applied to the gel (gel buffer: 25 mM Tris-HCl, 200 mM glycine). Electrophoresis was performed at 80 V for 120 min. After electrophoresis, the protein bands were visualized by staining with Coomassie Brilliant Blue R-250.

PA-IIL lectin = target: T2, PA-IIL lectin (Pseudomonas aeruginosa, UniProt Q9HYN5); format: binding; conditions: for sensor response / cross response to PA-IIL lectin: controls and selectivity, FIG. 30a, FIG. 31
T2 construct: made in house; host or cells: E. coli BL21(DE3) Star
T2 sequence (Q9HYN5 entry or part of it): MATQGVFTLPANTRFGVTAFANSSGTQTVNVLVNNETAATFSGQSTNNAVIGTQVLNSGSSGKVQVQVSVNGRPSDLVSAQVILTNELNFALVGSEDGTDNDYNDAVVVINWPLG
Experimental: (§1) To increase the reproducibility of these sensors, an automated printing method of the chitosan gel was introduced (FIG. 35). Patterned glass microscope slides (Tekdon™) were inserted in a microarray printer (Digilab MicroSys System™), where the robotic head was programmed to dispense alternating layers of chitosan-SWNT (0.25 wt % chitosan (CHI), 1 vol % acetic acid, 30 ug/ml suspended (6,5) SWNT) and crosslinker (10 vol % glutaraldehyde). The suspended SWNT was made from Southwest Nanotechnologies, Inc. CoMoCAT® nanotubes sonicated in 0.25 wt % chitosan (CHI) and 1 vol % acetic acid for 45 minutes at 40% amplitude with a probe-tip sonicator (Cole Parmer, Model CV18). […] The chips were printed in a humidified enclosure (85% RH) at 25° C. and allowed to cross-link overnight in the same environment. Nickel-NTA groups were introduced as previously reported^8; see FIG. 3. Briefly, the chips were washed with a dilute basic buffer (0.01 M NaOH) and water three times. Carboxylic acid groups were introduced to the chitosan wrapped SWNT by bathing the chips in succinic anhydride (0.1 M) overnight. The chips were then washed three times with water and the carboxylic acid groups were activated via N-(3-dimethylaminopropyl)-N′-ethylcarbo diimide hydrochloride (EDC-0.1M) and N-hydroxysuccinimide (NHS-0.1M). The chips were bathed in this solution for 2 hours at 25° C. and examined for the expected formation of bubbles. The chips were again washed and allowed to bathe in a solution of a linked tricarboxylic acid group (Nα,Nα-bis(carboxymethyl)-L-lysine a.k.a. NTA-33 mM) overnight. The chips were washed in water again and stored in a 100 mM solution of NiSO4 to allow maximum binding of nickel to the NTA chelating groups.
(§2) A custom-made near infrared inverted microscope (Zeiss D.1 Observer™) setup allowed us to probe the fluorescent emissions of our SWNT sensors (FIG. 26a). The chips were secured on the microscope stage and the objective (50×/0.7 Zeiss™) was pushed in contact with a blank portion of the glass slide (no SWNT-CHI) to obtain a 5 second background spectrum, which was subtracted from the response spectra. The objective was then moved under a SWNT-CHI gel spot and again pushed in contact with the glass slide. […] The SWNT were excited by a 785 nm laser (B&W Tek™—495 mW) and the emission was sent to a spectrometer (Princeton Instruments Acton SpectraPro 2500i Spectrograph™) and accompanying nIR camera (Intervac MOSIR Camera 350™) The spectra were collected via WinSpec software (Princeton Instruments™) and analyzed with custom Matlab (Mathworks™) code. To maximize signal stability, the spectrometer was cooled with liquid nitrogen two hours prior to experimentation and the laser was allowed to reach peak stability for two hours. […] Data was gathered in the form of emission intensity spectra (950-1250 nm) integrated for 5 seconds.
(§3) A typical experiment was run for approximately 1000 frames (at 5 seconds each) and included a few addition and washing steps to detect lectin-glycan binding (FIG. 26b). First NiSO4 was again added to ensure that the SWNT sensors were responsive and that the NTA chelating groups were fully loaded with Ni^++ groups. The nickel was then washed away with PBS three times, leaving 20 ul of PBS on the sensors. The His-tag lectin was then added to the sensor (20 μl at 2 mg/ml) and allowed to bind for 300 seconds.

GafD lectin [2] = target: T1, GafD lectin; format: binding; design: made in house; host or cells: E. coli BL21(DE3) Star; conditions: for sensor response / cross response to GafD lectin: controls and selectivity, FIG. 30a, FIG. 31
Experimental: as §1, §2, §3

GafD lectin [3] = target: T1, GafD lectin; conditions: 10 μM probe, sum of noise-reduced traces from 150 individual SWNT sensors
Experimental: A second custom microscope was used to collect emission intensities of single SWNT sensors (FIG. 27a). The SWNT-CHI gel was diluted to 3 μg/ml of SWNT and spin-coated (3000 rpm for 30 s on Make of SpinCoater™) on glass-bottom petridishes (MarTec Corp™). The petri-dishes were then placed on the microscope platform (Zeiss D.1 Observer) and the oil-immersed objective (Zeiss™ 100×/1.46) was focused on the SWNT sensors on the glass surface. The SWNT were excited by a 660 nm laser (Crystal Laser—100 mW) and the emission intensities were recorded by a nitrogen-cooled InGaAs array (Princeton Instruments™). […] These Tiff images were then analyzed using custom Matlab code (Mathworks™) to construct a intensity versus time trace for each SWNT sensor (FIG. 27c).
The use of single nanotube spectroscopy allowed this question to be addressed (FIG. 32). […] Using software developed in house, the movies of SWNT fluorescence were analyzed and intensity time traces were extracted for each of the individual SWNT sensors (FIG. 37).^24b An efficient algorithm for fitting large quantities of these time traces to embedded fluorescent levels was used.^35 Briefly, the algorithm used an optimized form of an established noise-reduction algorithm for biological experiments^36 to clean the traces (FIG. 37c). It then evaluated all-points histograms of each trace to determine the unique fluorescent states of each trace. […]

[4] = system: SWNT-Chitosan lectin sensors; assay: Ensemble chitosan-SWNT sensor measurements, controls and overall response (lectin not stated); format: binding; conditions: FIG. 30a
Experimental: To increase the reproducibility of these sensors, an automated printing method of the chitosan gel was introduced (FIG. 35). Patterned glass microscope slides (Tekdon™) were inserted in a microarray printer (Digilab MicroSys System™), where the robotic head was programmed to dispense alternating layers of chitosan-SWNT (0.25 wt % chitosan (CHI), 1 vol % acetic acid, 30 ug/ml suspended (6,5) SWNT) and crosslinker (10 vol % glutaraldehyde). The suspended SWNT was made from Southwest Nanotechnologies, Inc. CoMoCAT® nanotubes sonicated in 0.25 wt % chitosan (CHI) and 1 vol % acetic acid for 45 minutes at 40% amplitude with a probe-tip sonicator (Cole Parmer, Model CV18). For each sensor spot ten alternating layers of SWNT-CHI and cross-linker were printed at […] per layer, resulting in a highly-uniform gel of 1 ul SWNT-CHI material. […]
A custom-made near infrared inverted microscope (Zeiss D.1 Observer™) setup allowed us to probe the fluorescent emissions of our SWNT sensors (FIG. 26a). […] The SWNT were excited by a 785 nm laser (B&W Tek™—495 mW) and the emission was sent to a spectrometer (Princeton Instruments Acton SpectraPro 2500i Spectrograph™) and accompanying nIR camera (Intervac MOSIR Camera 350™) The spectra were collected via WinSpec software (Princeton Instruments™) and analyzed with custom Matlab (Mathworks™) code. […]

[5] = after Ni2+ and GafD lectin loading, FIG. 29a-b
[6] = from concentration dependent curves, analyte to GafD
[7] = from concentration dependent curves, analyte to PA-IIL

Chain of CDK4 (P11802 with tags, fused parts or gaps): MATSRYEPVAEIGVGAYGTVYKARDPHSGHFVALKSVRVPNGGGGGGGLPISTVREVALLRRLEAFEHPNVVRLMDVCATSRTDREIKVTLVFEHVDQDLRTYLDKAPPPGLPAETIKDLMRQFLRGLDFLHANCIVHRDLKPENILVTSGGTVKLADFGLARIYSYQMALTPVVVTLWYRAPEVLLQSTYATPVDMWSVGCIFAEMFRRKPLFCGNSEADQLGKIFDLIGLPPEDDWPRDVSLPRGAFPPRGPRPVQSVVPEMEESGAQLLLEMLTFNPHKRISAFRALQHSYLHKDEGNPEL

p16: human derived protein (ExPASy P42771), on-chip cell-free expressed with His-tag
Δd2 (CDK4): 0.05174

GlcNAc-Strept: model glycoprotein probe: biotinylated GlcNAc glycan bound to streptavidin
complex formation on native PAGE gel (GafD lectin [1]): bound complex
sensor response / cross response to PA-IIL lectin (PA-IIL lectin): negligible binding
time response (loading curve) upon analyte addition (GafD lectin [2]; [5]): SPR-like loading curve was observed
sensor response / cross response to GafD lectin (GafD lectin [2]): positive response
Kf (GafD lectin [2]; [6]): 0.0003 µM/s
kr (GafD lectin [2]; [6]): 0.015 s⁻¹
signal modulation (response) (GafD lectin [3]): ~3.5%

GlcNAcβ-SpNH-LC-LC-Biotin [GlcNAc-Biotin]
time response (loading curve) upon analyte addition (GafD lectin [2]; [5]): loading curve was observed
Kd (GafD lectin [2]; [6]): 19 µM
Kf (GafD lectin [2]; [6]): 0.0002 µM/s
kr (GafD lectin [2]; [6]): 0.0037 s⁻¹

O=C(O)CCCC[C@@H]1SC[C@@H]2NC(=O)N[C@@H]21 [biotin]
sensor response of controls [4]: negligible response

Fuc-Strept: model glycoprotein probe: biotinylated fucose glycan bound to streptavidin
sensor response / cross response to PA-IIL lectin (PA-IIL lectin): positive response
Kf (PA-IIL lectin; [7]): 0.0001 µM/s
sensor response / cross response to GafD lectin (GafD lectin [2]): small affinity

Fucα1-2Galβ1-4Glcβ-SpNH-LC-LC-Biotin [Fuc-Biotin]
Kd (PA-IIL lectin; [7]): 106 µM
Kf (PA-IIL lectin; [7]): 7e-05 µM/s
kr (PA-IIL lectin; [7]): 0.0074 s⁻¹

blank streptavidin: streptavidin (Sigma Aldrich SO677) without glycan
sensor response of controls [4]: negligible response
time response (loading curve) upon analyte addition (GafD lectin [2]; GafD lectin biotinylated, positive control, FIG. 29c): expected loading curve was observed
time response (loading curve) upon analyte addition (GafD lectin [2]; [5]): No loading curve was observed
